Experimental data from patent US20230250160A1 (HOBER BIOTECH, published 2023).
Where two headings read alike, the source gives them in different places.

What was measured:
Human Serum Albumin [1] = target: T1, Human Serum Albumin (human, UniProt P02768 25-609); assay: SPR Biacore T200, HSA on CM5 chip, ADAPT injected, 1:1 fit
T1 construct: also called HSA
Protocol: (§1) Sensor-based binding analysis was performed using a Biacore T200 system (GE Healthcare, Stockholm, Sweden). All analyses were conducted using CM-5 sensor chips coated with the target antigen, another irrelevant antigen and HSA. One surface was left as reference. Binding analysis was performed in PBS-T at 25° C. The ADAPT variants were diluted in PBS-T to 500 nM, 250 nM, 125 nM, 62.5 nM and 31.25 nM. The samples were injected at a flow rate of 30 ul/min for 120 s followed by injection of PBS-T for 240 s to monitor the dissociation. Surfaces were regenerated with 10 mM HCl. Kinetic parameters were determined using the Biacore Insight Evaluation software, assuming a 1:1 binding.

Human Serum Albumin [2] = target: T1, Human Serum Albumin; assay: as above; remark: listed apart in the source
Protocol: as §1

[3] = target: T2, tumor necrosis factor alpha (human (produced in the Human Secretome …, UniProt P01375 77-233, limits assumed)); assay: SPR Biacore T200, target on CM5 chip, ADAPT injected, 1:1 fit
T2 construct: also called TNFα; bTNFα
T2 sequence (P01375 77-233 limits assumed): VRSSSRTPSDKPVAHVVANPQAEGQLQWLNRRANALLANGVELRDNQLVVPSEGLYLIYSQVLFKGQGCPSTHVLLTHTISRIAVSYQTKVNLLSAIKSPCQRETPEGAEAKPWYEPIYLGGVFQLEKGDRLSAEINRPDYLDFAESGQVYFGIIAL
Protocol: as §1
(§2) Variants with sufficient alpha helical structure as well as monomeric elution profiles on the SEC column were further analyzed for binding towards their target protein as well as to HSA. The binding towards the target antigen used in the selection was measured by a multi-cycle analysis using SPR, showing that several binders had affinities in the μM-pM range. […] After target binding had been established, the variants were also evaluated for their ability to simultaneously bind to HSA. This was done either through an SPR capture assay or an experiment where the ADAPT was pre-incubated with saturating conditions of HSA before the binding towards the target was analyzed. […] In total, thirteen of the characterized binders from the selections towards TNFα, PSA, ANG, MYDGF and Insulin could bind both HSA and its target antigen simultaneously. FIG. 5 contains sensorgrams for the thirteen variants in the capture assay.

[4] = target: T2, tumor necrosis factor alpha; assay: as above; remark: listed apart in the source
Protocol: as §1

C-reactive protein [5] = target: T3, C-reactive protein (human (produced in the Human Secretome …, UniProt P02741 19-224)); assay: as above
T3 construct: also called CRP; bCRP
T3 sequence (looked up): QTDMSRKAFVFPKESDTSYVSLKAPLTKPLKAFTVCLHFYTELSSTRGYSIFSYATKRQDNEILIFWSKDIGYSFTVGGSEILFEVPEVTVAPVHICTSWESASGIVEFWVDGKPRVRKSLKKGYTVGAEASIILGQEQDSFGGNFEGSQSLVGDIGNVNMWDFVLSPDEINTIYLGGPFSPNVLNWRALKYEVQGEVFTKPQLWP
Protocol: as §1, §2

C-reactive protein [6] = target: T3, C-reactive protein; assay: as above; remark: listed apart in the source
Protocol: as §1

[7] = target: T4, Human recombinant Insulin (human, UniProt P01308 25-54; P01308 90-110, limits assumed); assay: as above
T4 construct: also called bInsulin
T4 sequence (P01308 25-54 limits assumed, chain 1 of 2): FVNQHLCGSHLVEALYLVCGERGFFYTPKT
T4 sequence (P01308 90-110 limits assumed, chain 2 of 2): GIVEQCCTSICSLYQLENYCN
Protocol: as §1, §2

[8] = target: T4, Human recombinant Insulin; assay: as above; remark: listed apart in the source
Protocol: as §1

angiogenin = target: T5, angiogenin (human (produced in the Human Secretome …, UniProt P03950 25-147)); assay: as above
T5 construct: also called bANG
T5 sequence (P03950 25-147 limits assumed): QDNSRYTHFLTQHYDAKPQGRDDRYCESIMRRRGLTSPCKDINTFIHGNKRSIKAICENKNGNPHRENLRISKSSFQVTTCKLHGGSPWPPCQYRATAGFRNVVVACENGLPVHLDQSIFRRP
Protocol: as §1

T1 sequence (P02768 25-609 limits assumed): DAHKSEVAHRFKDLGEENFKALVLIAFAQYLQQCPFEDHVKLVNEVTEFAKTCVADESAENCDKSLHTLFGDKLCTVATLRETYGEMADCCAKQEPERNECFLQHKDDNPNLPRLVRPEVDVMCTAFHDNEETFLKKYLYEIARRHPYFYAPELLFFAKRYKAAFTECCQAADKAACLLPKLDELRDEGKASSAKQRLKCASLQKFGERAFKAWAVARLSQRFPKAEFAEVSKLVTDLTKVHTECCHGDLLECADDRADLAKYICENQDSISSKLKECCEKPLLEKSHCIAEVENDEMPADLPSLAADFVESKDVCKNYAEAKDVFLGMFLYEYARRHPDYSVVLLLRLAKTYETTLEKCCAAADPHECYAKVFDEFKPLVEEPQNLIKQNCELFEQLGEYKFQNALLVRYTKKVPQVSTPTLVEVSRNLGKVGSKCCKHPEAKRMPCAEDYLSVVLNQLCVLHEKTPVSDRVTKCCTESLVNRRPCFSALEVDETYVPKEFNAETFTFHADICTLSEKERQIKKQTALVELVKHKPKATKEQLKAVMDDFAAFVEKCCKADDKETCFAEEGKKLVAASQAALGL

Binder | Kd (Human Serum Albumin [1]) [nM] | Kd (Human Serum Albumin [2]) [nM] | koff (Human Serum Albumin [2]) [s⁻¹] | kon (Human Serum Albumin [2]) [M⁻¹ s⁻¹] | Kd [3] [nM] | Kd [4] [nM] | koff [4] [s⁻¹] | kon [4] [M⁻¹ s⁻¹] | Kd (C-reactive protein [5]) [nM] | Kd (C-reactive protein [6]) [nM] | koff (C-reactive protein [6]) [s⁻¹] | kon (C-reactive protein [6]) [M⁻¹ s⁻¹] | Kd [7] [nM] | Kd [8] [nM] | koff [8] [s⁻¹] | kon [8] [M⁻¹ s⁻¹] | Kd (angiogenin) [nM] | koff (angiogenin) [s⁻¹] | kon (angiogenin) [M⁻¹ s⁻¹]
LIWAKAEAVQELFMYGVSDFYYDLIIKAKTVEGVEALKLHILAALP (designed binder, Single domain of about 6 kDa, made in E. coli, purified on HSA resin) [ADAPT variant TNFα_05] | 18 | 18 | 0.00039 | 21000 | 2.5 | 2.5 | 0.0037 | 1.5e+06 |  |  |  |  |  |  |  |  |  |  | 
LKVAKIIAFHELWEYGVSDFYLSLIDKAKTVEGVEALKLHILAALP (designed binder) [ADAPT variant CRP_38] | 13 | 13 | 0.0054 | 410000 |  |  |  |  | 52 | 52 | 0.0017 | 33000 |  |  |  |  |  |  | 
LHYAKIMAFHELWQYGVSDFYLQLIDKAKTVEGVEALKLHILAALP (designed binder) [ADAPT variant CRP_48] | 15 | 15 | 0.0042 | 280000 |  |  |  |  | 62 | 62 | 0.0012 | 19000 |  |  |  |  |  |  | 
LSKAKAQAWHELYYYGVSDFYLSLIDKAKTVEGVEALKLHILAALP (designed binder) [ADAPT variant CRP_23] | 23 | 23 | 0.007 | 300000 |  |  |  |  | 1900 | 1900 | 0.0017 | 890 |  |  |  |  |  |  | 
LAVAKAYAKYELAFYGVSDFYNELILKAKTVEGVEALKLHILAALP (designed binder, also called INS_03) [ADAPT variant Insulin_03] | 3.1 | 3.1 | 0.0014 | 460000 |  |  |  |  |  |  |  |  | 1300 | 1300 | 0.22 | 180000 |  |  | 
LRVAKSMAWHELWSYGVSDFYLRLIDKAKTVEGVEALKLHILAALP (designed binder) [ADAPT variant CRP_09] | 7.7 | 7.7 | 0.0038 | 490000 |  |  |  |  | 1100 | 1100 | 0.0013 | 1200 |  |  |  |  |  |  | 
LVIAKAYAQYELAFYGVSDFYSDLIKKAKTVEGVEALKLHILAALP (designed binder, also called INS_01) [ADAPT variant Insulin_01] | 3.9 | 3.9 | 0.0014 | 360000 |  |  |  |  |  |  |  |  | 950 | 950 | 0.22 | 240000 |  |  | 
LYVAKDNADWELWQYGVSDFYRSLIWKAKTVEGVEALKLHILAALP (designed binder) [ADAPT variant ANG_16] | 1 | 1 | 3e-05 | 29000 |  |  |  |  |  |  |  |  |  |  |  |  | 5.1 | 0.0005 | 99000
LYWAKDYADYELWQYGVSDFYRSLIWKAKTVEGVEALKLHILAALP (designed binder, also called ANG_2) [ADAPT variant ANG_02] | 2 | 2 | 4.5e-05 | 23000 |  |  |  |  |  |  |  |  |  |  |  |  | 14 | 0.0007 | 52000
LIWAKASAVRELHRYGVSDFYYELIVKAKTVEGVEALKLHILAALP (designed binder) [ADAPT variant TNFα_09] | 9.5 | 9.5 | 0.00034 | 36000 | 3.6 | 3.6 | 0.0032 | 890000 |  |  |  |  |  |  |  |  |  |  | 
